Read-outs that look alike come from different tables or passages of the source.
Columns and labels:
BxPC-3 (αvβ6 (+)) tumors = experiment: Biodistribution in mice bearing BxPC-3 tumors; assay type: in vivo
Description: (§1) Female nu/nu nude mice (6-8 weeks old) were purchased from Charles River Laboratories (Wilmington, MA, USA) and handled according to the UC Davis Institutional Animal Care and Use Committee. BxPC-3 cells (5×10^6) in 100 μl 1:1 GFR-Matrigel: serum-free RPMI were implanted subcutaneously into the left shoulder flank and allowed to grow for approximately 2 weeks (therapy study) and 3 weeks (0.5-1 cm in diameter, for imaging and biodistribution studies). All cells were evaluated with flow cytometry before injection to confirm integrin expression levels. Food and water were available ad libitum.
(§2) For blocking studies, respective non-chelated cold peptide (30 mg/kg, 10 mg/mL (DOTA-5G) and 48 mg/kg, 16 mg/mL (DOTA-ABM-5G) solution in PBS) was injected 10 min. before the formulated radiotracer. At each time point, the mice (n=3/time point/radiotracer) were anesthetized and sacrificed. The tissues were collected, rinsed with PBS, and the radioactivity of each measured with a gamma counter. Radioactivity concentrations were calibrated, decay-corrected, and expressed as percent of injected dose per gram of tissue (% ID/g).

[1] = Biodistribution in mice bearing BxPC-3 tumors; assay type: in vivo; settings: female, nu/nu nude, mouse, iv, total radioactivity; for tissue uptake at 1 h: 1 h p.i.; for tissue uptake at 4 h: 4 h p.i.; for tissue uptake at 24 h: 24 h p.i.; for tissue uptake at 48 h: 48 h p.i.; for tissue uptake at 72 h: 72 h p.i.
Description: as §1, §2

[2] = In vitro serum stability, human serum; assay type: in vitro ADME; settings: 37° C., read-out: stability in human serum (intact radiotracer)
Description: Mouse or human serum (500 μl, both purchased from Millipore Sigma) was combined with an aliquot of the formulated radiotracer (100-200 μCi) and incubated at 37° C. Aliquots (100-200 μl) were drawn for analysis at 1 and 2 h post-incubation for the ^68Ga radiotracers and 1 and 24 h post-incubation for ^177Lu radiotracers, mixed with absolute ethanol (500 μl, 4° C.), and centrifuged (2300× g, 3 min) to precipitate out serum proteins. The supernatant was diluted with HPLC Solvent A and analyzed by radio-HPLC to determine the fraction of intact radiotracer as disclosed in Hausner et al., “In vitro and in vivo evaluation of the effects of aluminum [^18F]fluoride radiolabeling on an integrin αvβ6-specific peptide” Nuclear medicine and biology.

αvβ6 (+) BxPC-3 tumors = experiment: In vivo targeted radionuclide therapy; design: species or system mice
Description: as §1
For in vivo targeted radionuclide therapy, mice were implanted subcutaneously with BxPc-3 tumor cells 14 days before start of treatment. Mice were randomly chosen and divided into four treatment groups: Control Saline (Group 1, n=5); Control Peptide DOTA-ABM-5G (Group 2, n=6); 1×74 MBq [^177Lu]Lu DOTA-ABM-5G (Group 3, n=10); and 2×37 MBq [^177Lu]Lu DOTA-ABM-5G (Group 4, n=7). Average tumor volume at the start of the treatment was 14-218 mm^3. Group 2 received 20 μg of peptide DOTA-ABM-5G per mouse as a control. Group 3 received 74 MBq on day 14 post-tumor implant (treatment day 0), and Group 4 received two doses of 37 MBq on day 14 and 21 post-tumor implant (treatment days 0 and 7), at a specific activity of 18.5 MBq/nmol. Body weights and tumor volumes were measured the day before treatment, and twice a week post-treatment throughout the study. Tumor volume (TV) was determined according to the equation TV=(π/6)*L*W*H, where L is the longest axis, W is the axis perpendicular to L and H is perpendicular to the plane of L and W. End point determination was based on the longest axis of TV exceeding 2 cm, active ulceration, or compromised health of the mouse, including >20% loss of body weight from the start of the study. Survival curves are depicted as a Kaplan-Meier plot, using start of treatment as day 0.

[3] = BxPC-3 tumor, read-out: uptake BxPC-3 tumor
[4] = bladder, read-out: uptake Bladder
[5] = gall bladder, read-out: uptake Gall Bladder
[6] = kidneys, read-out: uptake Kidneys
[7] = large intestines, read-out: uptake Lg Intestines
[8] = muscle, read-out: uptake Muscle
[9] = pancreas, read-out: uptake Pancreas
[10] = small intestines, read-out: uptake Sm Intestines
[11] = spleen, read-out: uptake Spleen
[12] = stomach, read-out: uptake Stomach

CNC(=O)C(CCCCNC(=O)C(CC(=O)O)NC(=O)CCCNC(=O)CCCc1ccc(I)cc1)NC(=O)CN1CCN2CCN3CCN(CC1)CC(=O)[O][177Lu]([O]C(=O)C2)[O]C(=O)C3 (stereo not shown) [[^177Lu]Lu DOTA-ABM-5G]
BxPC-3/kidney ratio (BxPC-3 (αvβ6 (+)) tumors; 1 h p.i.): 0.22±0.05 | BxPC-3/large intestine ratio (BxPC-3 (αvβ6 (+)) tumors; 1 h p.i.): 0.77±0.25 | BxPC-3/stomach ratio (BxPC-3 (αvβ6 (+)) tumors; 1 h p.i.): 0.50±0.08 | uptake Blood (BxPC-3 (αvβ6 (+)) tumors; 1 h p.i.): 5.36±0.71 % ID/g | uptake BxPC-3 tumor (BxPC-3 (αvβ6 (+)) tumors; 1 h p.i.): 4.54±0.42 % ID/g | uptake Kidneys (BxPC-3 (αvβ6 (+)) tumors; 1 h p.i.): 20.89±3.1 % ID/g | uptake Stomach (BxPC-3 (αvβ6 (+)) tumors; 1 h p.i.): 9.16±0.58 % ID/g | BxPC-3/kidney ratio (BxPC-3 (αvβ6 (+)) tumors; 72 h p.i.): 0.60±0.02 | BxPC-3/large intestine ratio (BxPC-3 (αvβ6 (+)) tumors; 72 h p.i.): 1.77±0.26 | BxPC-3/stomach ratio (BxPC-3 (αvβ6 (+)) tumors; 72 h p.i.): 1.16±0.30 | uptake Blood (BxPC-3 (αvβ6 (+)) tumors; 72 h p.i.): 0.01±0.00 % ID/g | uptake BxPC-3 tumor (BxPC-3 (αvβ6 (+)) tumors; 72 h p.i.): 5.29±0.75 % ID/g | uptake Kidneys (BxPC-3 (αvβ6 (+)) tumors; 72 h p.i.): 8.84±1.15 % ID/g | uptake Stomach (BxPC-3 (αvβ6 (+)) tumors; 72 h p.i.): 4.76±1.22 % ID/g | uptake in BxPC-3 tumor as compared to [^177Lu]Lu DOTA-5G (BxPC-3 (αvβ6 (+)) tumors; at all times (1-72 h)): at least 4 fold | tissue uptake at 1 h [1, 3]: 4.54 ± 0.42 %ID/g | tissue uptake at 4 h [1, 3]: 7.15 ± 3.04 %ID/g | tissue uptake at 24 h [1, 3]: 5.25 ± 0.71 %ID/g | tissue uptake at 48 h [1, 3]: 5.12 ± 0.47 %ID/g | tissue uptake at 72 h [1, 3]: 5.29 ± 0.75 %ID/g | tissue uptake at 1 h [1, 4]: 6.75 ± 2.39 %ID/g | tissue uptake at 24 h [1, 4]: 2.91 ± 0.16 %ID/g | tissue uptake at 48 h [1, 4]: 2.69 ± 0.33 %ID/g | tissue uptake at 72 h [1, 4]: 3.29 ± 0.63 %ID/g | tissue uptake at 1 h ([1]; blood, read-out: uptake Blood): 5.36 ± 0.71 %ID/g | tissue uptake at 24 h ([1]; blood, read-out: uptake Blood): 0.08 ± 0.01 %ID/g | tissue uptake at 48 h ([1]; blood, read-out: uptake Blood): 0.02 %ID/g | tissue uptake at 72 h ([1]; blood, read-out: uptake Blood): 0.01 %ID/g | tissue uptake at 1 h ([1]; bone, read-out: uptake Bone): 0.66 ± 0.15 %ID/g | tissue uptake at 24 h ([1]; bone, read-out: uptake Bone): 0.27 ± 0.08 %ID/g | tissue uptake at 48 h ([1]; bone, read-out: uptake Bone): 0.16 ± 0.19 %ID/g | tissue uptake at 72 h ([1]; bone, read-out: uptake Bone): 0.19 ± 0.13 %ID/g | tissue uptake at 1 h ([1]; brain, read-out: uptake Brain): 0.14 ± 0.01 %ID/g | tissue uptake at 24 h ([1]; brain, read-out: uptake Brain): 0.04 ± 0.01 %ID/g | tissue uptake at 48 h ([1]; brain, read-out: uptake Brain): 0.02 %ID/g | tissue uptake at 72 h ([1]; brain, read-out: uptake Brain): 0.03 %ID/g | tissue uptake at 1 h [1, 5]: 1.72 ± 0.46 %ID/g | tissue uptake at 24 h [1, 5]: 1.11 ± 0.71 %ID/g | tissue uptake at 48 h [1, 5]: 0.71 ± 0.13 %ID/g | tissue uptake at 72 h [1, 5]: 1.09 ± 0.61 %ID/g | tissue uptake at 1 h ([1]; heart, read-out: uptake Heart): 2.05 ± 0.37 %ID/g | tissue uptake at 24 h ([1]; heart, read-out: uptake Heart): 0.71 ± 0.05 %ID/g | tissue uptake at 48 h ([1]; heart, read-out: uptake Heart): 0.64 ± 0.06 %ID/g | tissue uptake at 72 h ([1]; heart, read-out: uptake Heart): 0.46 ± 0.11 %ID/g | tissue uptake at 1 h [1, 6]: 20.9 ± 3.1 %ID/g | tissue uptake at 24 h [1, 6]: 12.3 ± 1.24 %ID/g | tissue uptake at 48 h [1, 6]: 10.1 ± 1.04 %ID/g | tissue uptake at 72 h [1, 6]: 8.84 ± 1.15 %ID/g | tissue uptake at 1 h [1, 7]: 6.31 ± 1.86 %ID/g | tissue uptake at 4 h [1, 7]: < 7 %ID/g | tissue uptake at 24 h [1, 7]: 3.63 ± 0.09 %ID/g | tissue uptake at 48 h [1, 7]: 3.13 ± 0.53 %ID/g | tissue uptake at 72 h [1, 7]: 3.01 ± 0.44 %ID/g | tissue uptake at 1 h ([1]; liver, read-out: uptake Liver): 1.05 ± 0.05 %ID/g | tissue uptake at 4 h ([1]; liver, read-out: uptake Liver): < 1 %ID/g | tissue uptake at 24 h ([1]; liver, read-out: uptake Liver): 0.22 ± 0.01 %ID/g | tissue uptake at 48 h ([1]; liver, read-out: uptake Liver): 0.16 ± 0.02 %ID/g | tissue uptake at 72 h ([1]; liver, read-out: uptake Liver): 0.12 ± 0.01 %ID/g | tissue uptake at 1 h ([1]; lung, read-out: uptake Lung): 2.68 ± 0.21 %ID/g | tissue uptake at 24 h ([1]; lung, read-out: uptake Lung): 1.1 ± 0.15 %ID/g | tissue uptake at 48 h ([1]; lung, read-out: uptake Lung): 0.68 ± 0.08 %ID/g | tissue uptake at 72 h ([1]; lung, read-out: uptake Lung): 0.53 ± 0.1 %ID/g | tissue uptake at 1 h [1, 8]: 0.96 ± 0.24 %ID/g | tissue uptake at 24 h [1, 8]: 0.52 ± 0.08 %ID/g | tissue uptake at 48 h [1, 8]: 0.52 ± 0.03 %ID/g | tissue uptake at 72 h [1, 8]: 0.42 ± 0.02 %ID/g | tissue uptake at 1 h [1, 9]: 0.92 ± 0.07 %ID/g | tissue uptake at 24 h [1, 9]: 0.6 ± 0.11 %ID/g | tissue uptake at 48 h [1, 9]: 0.5 ± 0.09 %ID/g | tissue uptake at 72 h [1, 9]: 0.36 ± 0.12 %ID/g | tissue uptake at 1 h ([1]; skin, read-out: uptake Skin): 2.16 ± 0.35 %ID/g | tissue uptake at 24 h ([1]; skin, read-out: uptake Skin): 1.49 ± 0.57 %ID/g | tissue uptake at 48 h ([1]; skin, read-out: uptake Skin): 0.95 ± 0.05 %ID/g | tissue uptake at 72 h ([1]; skin, read-out: uptake Skin): 1.08 ± 0.16 %ID/g | tissue uptake at 1 h [1, 10]: 5.46 ± 0.54 %ID/g | tissue uptake at 24 h [1, 10]: 3.02 ± 0.32 %ID/g | tissue uptake at 48 h [1, 10]: 1.74 ± 0.22 %ID/g | tissue uptake at 72 h [1, 10]: 0.71 ± 0.16 %ID/g | tissue uptake at 1 h [1, 11]: 0.75 ± 0.03 %ID/g | tissue uptake at 24 h [1, 11]: 0.12 ± 0.01 %ID/g | tissue uptake at 48 h [1, 11]: 0.1 ± 0.02 %ID/g | tissue uptake at 72 h [1, 11]: 0.1 ± 0.01 %ID/g | tissue uptake at 1 h [1, 12]: 9.16 ± 0.58 %ID/g | tissue uptake at 24 h [1, 12]: 7.55 ± 1.45 %ID/g | tissue uptake at 48 h [1, 12]: 5.49 ± 0.27 %ID/g | tissue uptake at 72 h [1, 12]: 4.76 ± 1.22 %ID/g | remaining at 24 h [2]: ≥ 97% | median survival post-treatment (αvβ6 (+) BxPC-3 tumors; Group 3, 1×74 MBq): 82 days | median survival post-treatment (αvβ6 (+) BxPC-3 tumors; Group 4, 2×37 MBq (days 0 and 7)): 113 days | adverse events and weight loss during the study (αvβ6 (+) BxPC-3 tumors; any group, 120 days): No adverse events and weight loss | adverse reaction to treatment in blood chemistry (αvβ6 (+) BxPC-3 tumors; mouse, in vivo): no adverse reaction
